Results: publication PMC13317680, “Molecular architecture of the human citrate synthase–malate dehydrogenase 2 metabolon” (Acta Crystallographica Section D: Structural Biology, 2026)

B1: Human citrate synthase (enzyme, UniProt O75390 28-466, looked up)
chain: ASSTNLKDILADLIPKEQARIKTFRQQHGKTVVGQITVDMMYGGMRGMKGLVYETSVLDPDEGIRFRGFSIPECQKLLPKAKGGEEPLPEGLFWLLVTGHIPTEEQVSWLSKEWAKRAALPSHVVTMLDNFPTNLHPMSQLSAAVTALNSESNFARAYAQGISRTKYWELIYEDSMDLIAKLPCVAAKIYRNLYREGSGIGAIDSNLDWSHNFTNMLGYTDHQFTELTRLYLTIHSDHEGGNVSAHTSHLVGSALSDPYLSFAAAMNGLAGPLHGLANQEVLVWLTQLQKEVGKDVSDEKLRDYIWNTLNSGRVVPGYGHAVLRKTDPRYTCQREFALKHLPNDPMFKLVAQLYKIVPNVLLEQGKAKNPWPNVDAHSGVLLQYYGMTEMNYYTVLFGVSRALGVLAQLIWSRALGFPLERPKSMSTEGLMKFVDSKSG
notes: Human citrate synthase, mitochondrial, UniProt O75390, amino acids 28-466; Dimer in solution by SAXS; PDB 5uzr was the starting model for the SAXS fit; also called hCS; CS; source: E. coli, purified (HisTrap nickel column, Sephacryl S200 SEC)

Experiments:
[1] = biological target: Human citrate synthase (human) (UniProt O75390)
[2] = biological target: Human citrate synthase (human) (UniProt O75390); assay: SEC-SAXS; glutaraldehyde cross-linked hMDH2-hCS; Shodex KW-803, 50 mM sodium phosphate pH 7, 100 mM NaCl, 2 mM DTT, 2% glycerol, 10°C; LightDock models fitted with FoXS
[3] = biological target: the molecule itself; assay: SAXS (SEC-SAXS and HT-SAXS); hCS alone, 0.07-2.0 mg/ml in 50 mM Tris-HCl, 100 mM NaCl, 0.1 mM EDTA pH 7.5, 10°C; data compared with crystal structures and a normal-mode model (FoXS)

Molecule | NADH production (A340), hMDH2 titrated into 2.5 µM hCS at hMDH2:hCS molar ratios 0:1 to 3:1; no saturation (hMDH2 dimer per hCS dimer) [1] | stoichiometry N (hMDH2 (dimer) per hCS (dimer)) [2] | stoichiometry N [3]
Human mitochondrial malate dehydrogenase 2 (from UniProt P40926-1 25-338) (enzyme) | > 1 | 2 | –
B1 | – | – | 2
